Laboratory results: publication PMC6508626

Tests used:
Experiment in all cases: co-IP
[1] = biological target: HA-tagged NS1 Y32A (Dengue virus 2 (strain 16681))
[2] = biological target: HA-tagged NS1 G161A (Dengue virus 2 (strain 16681))
[3] = biological target: HA-tagged NS1 T317A (Dengue virus 2 (strain 16681))
[4] = biological target: HA-tagged NS1 R62A (Dengue virus 2 (strain 16681))
[5] = biological target: HA-tagged NS1 W150A (Dengue virus 2 (strain 16681))
[6] = biological target: HA-tagged NS1 K189A (Dengue virus 2 (strain 16681))
[7] = biological target: HA-tagged NS1 Y158A (Dengue virus 2 (strain 16681))
[8] = biological target: HA-tagged NS1 P320A (Dengue virus 2 (strain 16681))
[9] = biological target: Carboxy-terminally HA-tagged wildtype NS1 from pTM_NS1_HA (Dengue virus 2 (strain 16681)) (UniProt P29990)
[10] = biological target: HA-tagged NS1 W168A (Dengue virus 2 (strain 16681))
[11] = biological target: HA-tagged NS1 S252A (Dengue virus 2 (strain 16681))
[12] = biological target: HA-tagged NS1 R336A (Dengue virus 2 (strain 16681))
[13] = biological target: HA-tagged NS1 L153A (Dengue virus 2 (strain 16681))
[14] = biological target: HA-tagged NS1 D197A (Dengue virus 2 (strain 16681))
[15] = biological target: HA-tagged NS1 W311A (Dengue virus 2 (strain 16681))
[16] = biological target: HA-tagged NS1 E334A (Dengue virus 2 (strain 16681))
[17] = biological target: HA-tagged NS1 W8A (Dengue virus 2 (strain 16681))
[18] = biological target: HA-tagged NS1 P319A (Dengue virus 2 (strain 16681))
[19] = biological target: HA-tagged NS1 D136A (Dengue virus 2 (strain 16681))

**Q.** How did the NS1—NS4A-2K-4B interaction (fold of WT) [1] turn out when “NS4A-2K-4B polyprotein from pTM_NS4A-2K-4B (natural protein)” was run?
**A.** 0.31 fold of WT

**Q.** And the NS1—NS4A-2K-4B interaction (fold of WT) [2]?
**A.** 0.07 fold of WT

**Q.** What about the NS1—NS4A-2K-4B interaction (fold of WT) [3] of the same substance?
**A.** 2.08 fold of WT

**Q.** What about the NS1—NS4A-2K-4B interaction (fold of WT) [4] of the same substance?
**A.** 3.97 fold of WT

**Q.** And the NS1—NS4A-2K-4B interaction (fold of WT) [5]?
**A.** 0.38 fold of WT

**Q.** What about the NS1—NS4A-2K-4B interaction (fold of WT) [6] of the same substance?
**A.** 1.33 fold of WT

**Q.** And the NS1—NS4A-2K-4B interaction (fold of WT) [7]?
**A.** 3.01 fold of WT

**Q.** What about the NS1—NS4A-2K-4B interaction (fold of WT) [8] of the same substance?
**A.** 0.86 fold of WT

**Q.** And the NS1—NS4A-2K-4B interaction (fold of WT) [9]?
**A.** 1 fold of WT

**Q.** And the NS1—NS4A-2K-4B interaction (fold of WT) [10]?
**A.** 0.02 fold of WT

**Q.** What about the NS1—NS4A-2K-4B interaction (fold of WT) [11] of the same substance?
**A.** 3.18 fold of WT

**Q.** What about the NS1—NS4A-2K-4B interaction (fold of WT) [12] of the same substance?
**A.** 0.26 fold of WT

**Q.** What about the NS1—NS4A-2K-4B interaction (fold of WT) [13] of the same substance?
**A.** 1.67 fold of WT

**Q.** And the NS1—NS4A-2K-4B interaction (fold of WT) [14]?
**A.** 4.09 fold of WT

**Q.** And the NS1—NS4A-2K-4B interaction (fold of WT) [15]?
**A.** 0.31 fold of WT

**Q.** What about the NS1—NS4A-2K-4B interaction (fold of WT) [16] of the same substance?
**A.** 0.18 fold of WT

**Q.** And the NS1—NS4A-2K-4B interaction (fold of WT) [17]?
**A.** 0.99 fold of WT

**Q.** And the NS1—NS4A-2K-4B interaction (fold of WT) [18]?
**A.** 0.37 fold of WT

**Q.** And the NS1—NS4A-2K-4B interaction (fold of WT) [19]?
**A.** 0.21 fold of WT
